Here are results for 4 molecules from publication PMC4455164, “Facilitated Tau Degradation by USP14 Aptamers via Enhanced Proteasome Activity”.

The series concerns the target USP14 (GST-USP14) (UniProt P54578 1-494). The series is described as follows: GST pull-down with RT-PCR; 2 pmol GST-protein on GST sepharose 4B resin + 20 pmol RNA; pull-down buffer not restated; SELEX binding buffer 30 mM Tris-HCl pH 7.5, 150 mM NaCl, 1.5 mM MgCl2, 2 mM DTT, 1% BSA, RT. The following applies: protein: recombinant; tags: N-terminal GST (pGEX-2T).

Chain of USP14 (GST-USP14) (P54578 whole entry): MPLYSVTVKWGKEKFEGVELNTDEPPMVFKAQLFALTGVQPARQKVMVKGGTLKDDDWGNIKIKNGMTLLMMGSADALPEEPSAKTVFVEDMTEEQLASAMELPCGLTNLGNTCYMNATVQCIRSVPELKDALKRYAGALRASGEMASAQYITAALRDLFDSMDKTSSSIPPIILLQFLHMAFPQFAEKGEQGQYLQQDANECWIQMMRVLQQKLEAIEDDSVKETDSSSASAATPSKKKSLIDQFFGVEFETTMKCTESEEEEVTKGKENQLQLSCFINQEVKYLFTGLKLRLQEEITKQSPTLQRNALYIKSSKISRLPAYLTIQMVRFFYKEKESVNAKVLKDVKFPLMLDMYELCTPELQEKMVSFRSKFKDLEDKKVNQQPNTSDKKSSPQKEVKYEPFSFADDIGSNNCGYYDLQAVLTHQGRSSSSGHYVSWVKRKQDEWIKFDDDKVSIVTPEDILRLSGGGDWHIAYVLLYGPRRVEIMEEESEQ

B1: USP14-1 mutant (structured_RNA)
RNA: GGGUUCACUGCAGACUUGACGAAGCUUGCAGUGAUGUGCUUCUAAAAAACAACCUAAAAAAAUUGCCAAUGGAUCCACAUCUACGAAUUC
Consider B1, for which the binding result is reported as “no binding”.

B2: USP14-2 mutant (structured_RNA)
RNA: GGGUUCACUGCAGACUUGACGAAGCUUCUGAAAAAAAGUUAGUUUCGCUGGUUUAAAAUCGGUGCGGAAUGGAUCCACAUCUACGAAUUC
For B2, the binding result was “no binding”.
Take UUUGUCUAGCGCGUAGUGGGGAGAUGUUGUGAUACUGGGG (ssRNA) [control RNA aptamer]: the binding result is “no binding”.

B3: USP14-3 mutant (structured_RNA)
RNA: GGGUUCACUGCAGACUUGACGAAGCUUAAAAAAAAGGCUCGUUUGGCCUGCCGAAAAAAGGCCGGGAAAUGGAUCCACAUCUACGAAUUC
B3: the binding result is “no binding”.
